The target of experiment [1] is optimized bait-PAR-Grb2, GFP-fused (with inserted flexible linker sequences between fluorophore and Grb2) (UniProt P62993). Description: TIR-FRAP on bait micropatterns; live HeLa cells co-transfected with bait-PAR-Grb2 and prey on anti-HA patterns; EGF (170 nM) for at least 5 min before FRAP; single patterns bleached for 500 ms; bi-exponential, diffusion-uncoupled two-component fit.

The target is the same in experiment [2]. Description: subcellular micropatterning (bait-prey copatterning, TIRF microscopy); live HeLa cells co-expressing bait-PAR-Grb2 and fluorescent prey on anti-HA antibody patterned COP substrate; bait-normalized prey contrast; after EGF stimulation (170 nM, 10 min).
Experiment [3] has the same target. Description: subcellular micropatterning (bait-prey copatterning, TIRF microscopy); live HeLa cells co-expressing bait-PAR-Grb2 and fluorescent prey on anti-HA antibody patterned COP substrate; bait-normalized prey contrast; basal conditions, before EGF.
Experiment [4] shares this target. The description is as above. The source holds these as a separate data set.
The target of experiment [5] is optimized bait-PAR-Grb2, RFP-fused (UniProt P62993). Description: subcellular micropatterning (bait-prey copatterning, TIRF microscopy); competition in live HeLa cells: bait-PAR-Grb2-RFP and Gab1-GFP on anti-HA patterns, cyclo(YpVNFΦrpPRR) added to the cells (100 μM over time; dose-response); bait-normalized contrast set between 0 and 100%.
Experiment [6] shares this target. Briefly: subcellular micropatterning (bait-prey copatterning, TIRF microscopy); competition in live HeLa cells: bait-PAR-Grb2-RFP and GFP-fused SOS1 on anti-HA patterns, cyclo(YpVNFΦrpPRR) added to the cells (100 μM over time; dose-response); bait-normalized contrast set between 0 and 100%.
The target of experiment [7] is optimized bait-PAR-Grb2, RFP-fused, P62993. Description: TIR-FRAP on bait micropatterns; live HeLa cells co-transfected with bait-PAR-Grb2 and prey on anti-HA patterns; EGF (170 nM) for at least 5 min before FRAP; single patterns bleached for 500 ms; bi-exponential, diffusion-uncoupled two-component fit. The settings on record: remark: other sources report otherwise.

Experiment [8] shares this target. Briefly: subcellular micropatterning (bait-prey copatterning, TIRF microscopy); live HeLa cells co-expressing bait-PAR-Grb2 and fluorescent prey on anti-HA antibody patterned COP substrate; bait-normalized prey contrast; basal conditions, before EGF. The settings on record: remark: other sources report otherwise.
Experiment [9] has the same target. Description: subcellular micropatterning (bait-prey copatterning, TIRF microscopy); live HeLa cells co-expressing bait-PAR-Grb2 and fluorescent prey on anti-HA antibody patterned COP substrate; bait-normalized prey contrast; after EGF stimulation (170 nM, 10 min). As to conditions: remark: other sources report otherwise.
For experiment [10] the target is unchanged. Briefly: subcellular micropatterning (bait-prey copatterning, TIRF microscopy); live HeLa cells with bait-PAR-Grb2-RFP and GFP-fused Gab1 or SOS1 on anti-HA patterns, treated with 10 μM actinomycin D, copatterning followed over time. The settings on record: remark: other sources report otherwise.

For the molecule “SHC-transforming protein 1 (Shc1), RFP-fused (from UniProt P29353 1-583) (natural protein)”, the half-time of dissociation (FRAP) in experiment [1] came to 10 s. Besides, the k slow (exchange rate, FRAP) in [1] stood at 0.103 s⁻¹. Further, the values for the bait-normalized fluorescence contrast <c prey/bait> in experiment [2], in experiment [3] and in [4] were 0.45, 0.21 and 0.14, respectively.
A word on the EC50: it is the midpoint of the concentration-response curve. A low value points to an effect from little substance. “cell-permeable cyclic peptide cyclo(YpVNFΦrpPRR)”: in [5], the EC50 is 68 µM, the dissociation half-life of Gab1 from Grb2 at 100 μM peptide came to 42 s and the maximum prey dissociation at 100 μM peptide (Gab1 from Grb2) is 70 to 75%. Also, in experiment [6], the EC50 came to 63 µM, the dissociation half-life of SOS1 from Grb2 at 100 μM peptide amounted to 36 s and the maximum prey dissociation at 100 μM peptide (SOS1 from Grb2) fell in the range of 70 to 75%.

B1: son of sevenless protein 1 (SOS1), GFP-fused, Q07889 1-1333 (natural protein)
chain: MQAQQLPYEFFSEENAPKWRGLLVPALKKVQGQVHPTLESNDDALQYVEELILQLLNMLCQAQPRSASDVEERVQKSFPHPIDKWAIADAQSAIEKRKRRNPLSLPVEKIHPLLKEVLGYKIDHQVSVYIVAVLEYISADILKLVGNYVRNIRHYEITKQDIKVAMCADKVLMDMFHQDVEDINILSLTDEEPSTSGEQTYYDLVKAFMAEIRQYIRELNLIIKVFREPFVSNSKLFSANDVENIFSRIVDIHELSVKLLGHIEDTVEMTDEGSPHPLVGSCFEDLAEELAFDPYESYARDILRPGFHDRFLSQLSKPGAALYLQSIGEGFKEAVQYVLPRLLLAPVYHCLHYFELLKQLEEKSEDQEDKECLKQAITALLNVQSGMEKICSKSLAKRRLSESACRFYSQQMKGKQLAIKKMNEIQKNIDGWEGKDIGQCCNEFIMEGTLTRVGAKHERHIFLFDGLMICCKSNHGQPRLPGASNAEYRLKEKFFMRKVQINDKDDTNEYKHAFEIILKDENSVIFSAKSAEEKNNWMAALISLQYRSTLERMLDVTMLQEEKEEQMRLPSADVYRFAEPDSEENIIFEENMQPKAGIPIIKAGTVIKLIERLTYHMYADPNFVRTFLTTYRSFCKPQELLSLIIERFEIPEPEPTEADRIAIENGDQPLSAELKRFRKEYIQPVQLRVLNVCRHWVEHHFYDFERDAYLLQRMEEFIGTVRGKAMKKWVESITKIIQRKKIARDNGPGHNITFQSSPPTVEWHISRPGHIETFDLLTLHPIEIARQLTLLESDLYRAVQPSELVGSVWTKEDKEINSPNLLKMIRHTTNLTLWFEKCIVETENLEERVAVVSRIIEILQVFQELNNFNGVLEVVSAMNSSPVYRLDHTFEQIPSRQKKILEEAHELSEDHYKKYLAKLRSINPPCVPFFGIYLTNILKTEEGNPEVLKRHGKELINFSKRRKVAEITGEIQQYQNQPYCLRVESDIKRFFENLNPMGNSMEKEFTDYLFNKSLEIEPRNPKPLPRFPKKYSYPLKSPGVRPSNPRPGTMRHPTPLQQEPRKISYSRIPESETESTASAPNSPRTPLTPPPASGASSTTDVCSVFDSDHSSPFHSSNDTVFIQVTLPHGPRSASVSSISLTKGTDEVPVPPPVPPRRRPESAPAESSPSKIMSKHLDSPPAIPPRQPTSKAYSPRYSISDRTSISDPPESPPLLPPREPVRTPDVFSSSPLHLQPPPLGKKSDHGNAFFPNSPSPFTPPPPQTPSPHGTRRHLPSPPLTQEVDLHSIAGPPVPPRQSTSQHIPKLPPKTYKREHTHPSMHRDGPPLLENAHSS
In experiment [7], B1 returned a half-time of dissociation (FRAP) of 13 s and a k slow (exchange rate, FRAP) of 0.074 s⁻¹. Also, the bait-normalized fluorescence contrast <c prey/bait> in experiment [8] was determined as 0.55. Also, in experiment [9], the bait-normalized fluorescence contrast <c prey/bait> was determined as 0.56. In [10], this molecule came in with a dissociation half-life with 10 μM actinomycin D of 84 s and a reduction of copatterning with 10 μM actinomycin D of 25%.

Values taken from paper PMC8630788.
